Measurements taken from patent publication US20250361322A1 (ICONIC THERAPEUTICS, published 2025).

Key:
Assay in all cases: cell-based or functional assay
Relipidated TF [1] = target: Relipidated TF (UniProt P13726 33-295, limits assumed)
[2] = target: human Tissue Factor (hTF) (human, UniProt P13726 33-295)
Relipidated TF [3] = target: Relipidated TF
Relipidated TF [4] = target: Relipidated TF (UniProt P13726 33-295, limits assumed); remark: listed apart in the source

Binder | IC50, cell viability of A431 cells, Secondary ADC (antibody with anti-human Fc Fab:MMAF), Continuous (FIG. 18B) [2] | % ETP, TGA with 10 min antibody pre-incubation, 10 nM antibody (Relipidated TF [3]) | % Peak IIa, TGA with 10 min antibody pre-incubation, 10 nM antibody (Relipidated TF [3]) | % Peak IIa, TGA with 10 min antibody pre-incubation, 50 nM antibody (Relipidated TF [3]) | % Peak IIa, TGA with 10 min antibody pre-incubation, 100 nM antibody (Relipidated TF [3]) | % ttPeak, TGA with 10 min antibody pre-incubation, 10 nM antibody (Relipidated TF [3]) | % ttPeak, TGA with 10 min antibody pre-incubation, 50 nM antibody (Relipidated TF [3]) | % ttPeak, TGA with 10 min antibody pre-incubation, 100 nM antibody (Relipidated TF [3]) | Lag Time, TGA with 10 min antibody pre-incubation, 10 nM antibody (Relipidated TF [3]) | Lag Time, TGA with 10 min antibody pre-incubation, 50 nM antibody (Relipidated TF [3]) | Lag Time, TGA with 10 min antibody pre-incubation, 100 nM antibody (Relipidated TF [3]) | Peak IIa, TGA with 10 min antibody pre-incubation, 10 nM antibody (Relipidated TF [3]) | Peak IIa, TGA with 10 min antibody pre-incubation, 50 nM antibody (Relipidated TF [3]) | Peak IIa, TGA with 10 min antibody pre-incubation, 100 nM antibody (Relipidated TF [3]) | ttPeak, TGA with 10 min antibody pre-incubation, 10 nM antibody (Relipidated TF [3]) | ttPeak, TGA with 10 min antibody pre-incubation, 50 nM antibody (Relipidated TF [3]) | ttPeak, TGA with 10 min antibody pre-incubation, 100 nM antibody (Relipidated TF [3]) | ETP, TGA with 10 min antibody pre-incubation, 10 nM antibody (Relipidated TF [3]) | further results
25A5 (antibody, human IgG1, V domains shown) VH: QVQLVQSGAEVKKPGASVKVSCKASGYTFDVYGISWVRQAPGQGLEWMGWIAPYSGNTNYAQKLQGRVTMTTDTSTSTAYMELRSLRSDDTAVYYCARDAGTYSPFGYGMDVWGQGTTVTVSS VL: DIQMTQSPSTLSASVGDRVTITCRASESISNWLAWYQQKPGKAPKLLIYKAYSLEYGVPSRFSGSGSGTEFTLTISSLQPDDFATYYCQQFQKLPPFTFGGGTKVEIK | – | – | – | – | – | – | – | – | – | – | – | – | – | – | – | – | – | – | % ETP at 10 nM Ab (TGA without antibody pre-incubation) (Relipidated TF [1]): 99%; % Peak IIa at 10 nM Ab (TGA without antibody pre-incubation) (Relipidated TF [1]): 98%; % Peak IIa at 50 nM Ab (TGA without antibody pre-incubation) (Relipidated TF [1]): 98%; % Peak IIa at 100 nM Ab (TGA without antibody pre-incubation) (Relipidated TF [1]): 98%; ETP at 10 nM Ab (TGA without antibody pre-incubation) (Relipidated TF [1]): 2270 nM·min; ETP at 50 nM Ab (TGA without antibody pre-incubation) (Relipidated TF [1]): 2320 nM·min; ETP at 100 nM Ab (TGA without antibody pre-incubation) (Relipidated TF [1]): 2390 nM·min; Lag Time at 10 nM Ab (TGA without antibody pre-incubation) (Relipidated TF [1]): 4.7 min; Lag Time at 50 nM Ab (TGA without antibody pre-incubation) (Relipidated TF [1]): 4.8 min; Lag Time at 100 nM Ab (TGA without antibody pre-incubation) (Relipidated TF [1]): 5.1 min; Peak IIa at 10 nM Ab (TGA without antibody pre-incubation) (Relipidated TF [1]): 343 nM; Peak IIa at 50 nM Ab (TGA without antibody pre-incubation) (Relipidated TF [1]): 344 nM; Peak IIa at 100 nM Ab (TGA without antibody pre-incubation) (Relipidated TF [1]): 342 nM; ttPeak at 10 nM Ab (TGA without antibody pre-incubation) (Relipidated TF [1]): 8 min; ttPeak at 50 nM Ab (TGA without antibody pre-incubation) (Relipidated TF [1]): 8.1 min; ttPeak at 100 nM Ab (TGA without antibody pre-incubation) (Relipidated TF [1]): 8.5 min
anti-TF antibody 39A (antibody, human IgG1, V domains shown) VH: QVQLVQSGAEVKKPGSSVKVSCKASGGTFSSNAIGWVRQAPGQGLEWMGSIIPIIGFANYAQKFQGRVTITADESTSTAYMELSSLRSEDTAVYYCARDSGYYYGASSFGMDVWGQGTTVTVSS VL: EIVMTQSPATLSVSPGERATLSCRASQSVSSNLAWYQQKPGQAPRLLIYGASTRATGIPARFSGSGSGTEFTLTISSLQSEDFAVYYCEQYNNLPLTFGGGTKVEIK | 80 pM | 0% | 13% | 8% | 7% | 319% | 491% | 537% | 19.6 min | 30.7 min | 33.6 min | 36 nM | 22 nM | 19 nM | 29.3 min | 41.4 min | 44.6 min | – | –
39A (antibody, IgG1, V domains shown) VH: QVQLVQSGAEVKKPGSSVKVSCKASGGTFSSNAIGWVRQAPGQGLEWMGSIIPIIGFANYAQKFQGRVTITADESTSTAYMELSSLRSEDTAVYYCARDSGYYYGASSFGMDVWGQGTTVTVSS VL: EIVMTQSPATLSVSPGERATLSCRASQSVSSNLAWYQQKPGQAPRLLIYGASTRATGIPARFSGSGSGTEFTLTISSLQSEDFAVYYCEQYNNLPLTFGGGTKVEIK | – | – | – | – | – | – | – | – | – | – | – | – | – | – | – | – | – | – | % ETP, Ab conc. 10 nM (Relipidated TF [4]): 84%; % Peak IIa, Ab conc. 10 nM (Relipidated TF [4]): 37%; % Peak IIa, Ab conc. 50 nM (Relipidated TF [4]): 11%; % Peak IIa, Ab conc. 100 nM (Relipidated TF [4]): 9%; % ttPeak, Ab conc. 10 nM (Relipidated TF [4]): 135%; % ttPeak, Ab conc. 50 nM (Relipidated TF [4]): 397%; % ttPeak, Ab conc. 100 nM (Relipidated TF [4]): 465%
anti-TF antibody 1F (antibody, human IgG1, V domains shown) VH: EVQLLESGGGLVQPGGSLRLSCAASGFTFSDYAMGWVRQAPGKGLEWVSTISGSGGLTYYADSVKGRFTISRDNSKNTLYLQMNSLRAEDTAVYYCAKAPYGYYMDVWGKGTTVTVSS VL: not shown | 70 pM | 41% | 16% | 8% | 7% | 220% | 433% | 483% | 13.8 min | 26.5 min | 29.5 min | 44 nM | 23 nM | 20 nM | 22.4 min | 37.3 min | 40.8 min | 742 nM·min | –
43B1 (antibody, IgG1, V domains shown) VH: QVQLQESGPGLVKPSQTLSLTCTVSGGSISSGQYWSWIRQHPGKGLEWIGEIYYSGSTRYNPSLKSRVTISVDTSKNQFSLKLSSVTAADTAVYYCARDAPYYYGGGYYYYMDVWGKGTTVTVSS VL: EIVLTQSPGTLSLSPGERATLSCRASESVDSSYLAWYQQKPGQAPRLLIYGASTRQTGIPDRFSGSGSGTDFTLTISRLEPEDFAVYYCQQAGVVPYTFGGGTKVEIK | – | – | – | – | – | – | – | – | – | – | – | – | – | – | – | – | – | – | % Peak IIa, Ab conc. 10 nM (Relipidated TF [4]): 89%; % Peak IIa, Ab conc. 50 nM (Relipidated TF [4]): 72%; % ttPeak, Ab conc. 10 nM (Relipidated TF [4]): 9%; % ttPeak, Ab conc. 50 nM (Relipidated TF [4]): 29%; % ttPeak, Ab conc. 100 nM (Relipidated TF [4]): 37%
anti-TF antibody 43Ea (antibody, human IgG1, V domains shown) VH: QVQLQESGPGLVKPSQTLSLTCTVSGGSISSGQYWSWIRQHPGKGLEWIGEIYYSGSTRYNPSLKSRVTISVDTSKNQFSLKLSSVTAADTAVYYCARDTPYYYDGGYYYYMDVWGKGTTVTVSS VL: EIVLTQSPGTLSLSPGERATLSCRASQSVSSSYLAWYQQKPGQAPRLLIYGASSRATGIPDRFSGSGSGTDFTLTISRLEPEDFAVYYCQQVGVVPYTFGGGTKVEIK | 130 pM | – | – | – | – | – | – | – | – | – | – | – | – | – | – | – | – | – | –
anti-TF antibody 43B1 (antibody, human IgG1, V domains shown) VH: QVQLQESGPGLVKPSQTLSLTCTVSGGSISSGQYWSWIRQHPGKGLEWIGEIYYSGSTRYNPSLKSRVTISVDTSKNQFSLKLSSVTAADTAVYYCARDAPYYYGGGYYYYMDVWGKGTTVTVSS VL: EIVLTQSPGTLSLSPGERATLSCRASESVDSSYLAWYQQKPGQAPRLLIYGASTRQTGIPDRFSGSGSGTDFTLTISRLEPEDFAVYYCQQAGVVPYTFGGGTKVEIK | 120 pM | – | – | – | – | – | – | – | – | – | – | – | – | – | – | – | – | – | –
anti-TF antibody 29E (antibody, human IgG1, V domains shown) VH: QVQLVESGGGVVQPGRSLRLSCAASGFTFRSYGMHWVRQAPGKGLEWVAVITYDGINKYYADSVEGRFTISRDNSKNTLYLQMNSLRAEDTAVYYCARDGVYYGVYDYWGQGTLVTVSS VL: not shown | 100 pM | 77% | 36% | 30% | 28% | 159% | 237% | 247% | 9.4 min | 14.1 min | 14.7 min | 98 nM | 83 nM | 76 nM | 18.1 min | 23.6 min | 24.3 min | 1410 nM·min | % ETP, TGA with 10 min antibody pre-incubation, 50 nM antibody (Relipidated TF [3]): 72%; % ETP, TGA with 10 min antibody pre-incubation, 100 nM antibody (Relipidated TF [3]): 66%; ETP, TGA with 10 min antibody pre-incubation, 50 nM antibody (Relipidated TF [3]): 1300 nM·min; ETP, TGA with 10 min antibody pre-incubation, 100 nM antibody (Relipidated TF [3]): 1200 nM·min
anti-TF antibody 54E (antibody, human IgG1, V domains shown) VH: QVQLVQSGAEVKKPGASVKVSCKASGYTFANYYMHWVRQAPGQGLEWMGIINPSGGITVYAQKFQGRVTMTRDTSTSTVYMELSSLRSEDTAVYYCARGGSKVAALAFDIWGQGTMVTVSS VL: DIQMTQSPSSLSASVGDRVTITCQASQDISNSLNWYQQKPGKAPKLLIYDASNLETGVPSRFSGSRSGTDFTFTISSLQPEDIATYYCQQYNFHPLTFGGGTKVEIK | 110 pM | 83% | 43% | 16% | 13% | 96% | 303% | – | 6.5 min | 18.3 min | 22.3 min | 121 nM | 44 nM | 37 nM | 13.7 min | 28.2 min | 33 min | 1520 nM·min | –
